Laboratory results from patent publication US20210253725A1 (BIONTECH, published 2021).
Positions count from the first letter of the chain named. Names may count otherwise.

B1: P018.S.10.A.A04 (antibody, V domains shown)
VH: QSVEESGGRLVTPGTPLTLTCTVSGIDLSSNVMTWVRQAPGKGLEWIGYIYASATTYYATWAKGRFTISKTSTTVDLKMTSPTTEDTATYFCARERLASRGDYSDLWGQGTLVTVSS
VL: AYDMTQTPASVEAAVGGTVTIKCQASESIGDLLAWYQQKPGQPPKLLIYDASDLASGVPSRFKGSGSGTEFTLTISGVESADAATYYCQQGYTTTSNVDNIFGGGTEVVVK
notes: V regions on human Ig constant parts; also called AB27_164
B2: P018.S.03.A.F02 (antibody, V domains shown)
VH: QSVEESGGRLVTPGTPLTLTCTVSGFSLSSNAMTWVRQAPGKGLEWIGFINTGGSTYYASWAKGRFTISKTSTTVDLKITSPTTEDTATYFCARDVGDSRGYYWGLWGQGTLVTVSS
VL: B1 VL with E12P, S28D, G30Y, D31S, K63R, E70D, F71Y, T95Y, S96T, N97T
notes: V regions on human Ig constant parts; also called AB27_53
B3: P018.S.04.A.D04 (antibody, V domains shown)
VH: B2 VH with F26I, S27D, N31Y, A32S, S55R, T56G, V96A, D98S, W104R, G105D
VL: B1 VL with E12S, S28D, G30Y, D31S, K63S, E70D, F71Y, T95S, S96T, N97T
notes: V regions on human Ig constant parts; also called AB27_72
B4: P018.S.06.A.A03 (antibody, V domains shown)
VH: B2 VH with G54S, V96A, G97D
VL: B1 VL with E12P, S28D, G30Y, D31S, K63R, E70D, F71Y, T95Y, S96T, N97T
notes: V regions on human Ig constant parts; also called AB27_96
B5: P018.S.04.A.B05 (antibody, V domains shown)
VH: QSVEESGGRLVTPGTPLTLTCTASGFTLSSFYMSWVRQAPGKGLEWIGFIHGHGNTYYASWAKGRFTISKTSTTVDLKIASPTTEDTATYFCARGGHPNMDLWGQGTLVTISS
VL: DIVMTQTPSSVEAAVGGTVTIKCQASQNINNYLAWYQQKPGQPPKLLIYYASTLASGVSSRFKGSGSGTEFTLTISDLESDDAATYYCQCSYYDASIFGAFGGGTEVVVR
notes: V regions on human Ig constant parts; also called AB27_68
B6: P018.S.10.A.C05 (antibody, V domains shown)
VH: QSVEETGGRLVTPGTPLTLTCAASGVSLSGYYAMSWVRQAPGKGLEWIGYLDATGSTYYASWVKGRFIISRPSTTVDLQITSPTIEDTATYFCARGSYDGVGYNWGLWGQGTLVTVSS
VL: DIVMTQTPASVSEPVGGTVTIKCQASESIYNGLAWYQQKPGQPPKRLIYGASTLTSGVPSRFKGSGSGTEFTLTISDLESDDAATYYCQSNYGSGSRSNYIFGGGTEVVVK
notes: V regions on human Ig constant parts; also called AB27_173
B7: P018.S.01.A.G03 (antibody, V domains shown)
VH: QSVEESGGRLVTPGTPLTLTCTVSGFSLSSYSMIWVRQAPGKGLEWIGIVYASGSTNYASWAKGRFTISKTSTTVDLKITSPTTEDTATYFCARGDVLYAFDPWGPGTLVTVSS
VL: AFELTQTPSSVSAAVGGTVTIKCQASENIYSYLAWYQQKPGQPPKRLIYYASNLASGVSSRFKGSGSGTEFTLTISDLESADAATYYCQYTYSTSPGYIFGGGTEVVVK
notes: V regions on human Ig constant parts; also called AB27_22
B8: P018.S.07.A.H02 (antibody, V domains shown)
VH: QEQLVESGGGLVQPEGSLTLTCKASGFDFSSDAMCWVRQAPGKGLEWIACIYVGSVGSSWYASWAKGRFTISKSSSTTVTLQVTSLTAADTATYFCARGENIAYFTFWGPGTLVTVSS
VL: DIMMTQTPASVSAAVGGTVTIKCQASQSINSWLSWYQQKPGQPPKLLIYKASTLASGVPSRFEGSGSGTEFTLTISDLESADAATYYCQGYYYYSSSNFASNAFGGGTEVVVK
notes: V regions on human Ig constant parts; also called AB27_131
B9: P018.S.01.A.D05 (antibody, V domains shown)
VH: QSLEESGGRLVTPGTPLTLTCTASGFSLSSYYMSWVRQAPGKGLEYIGGIYTGGSAYYASWARGRFTISRTSTTVDLKMTSLTIEDTATYFCARDAGDRIYTTFNLWGPGTLVTVSS
VL: ALVMTQTPASVSEPVGGTVSLKCQASQSIGSDLSWYQQKSGQPPKLLIYRASKLASGVPSRFKGSGSGTEFTLTISGVQSDDAATYYCLGIDSYSSDDGIAFGGGTEVVVK
notes: V regions on human Ig constant parts; also called AB27_13
B10: P018.S.01.A.A05 (antibody, V domains shown)
VH: QEQLEESGGDRVQPEGSLTLTCTASGFSFSATYWICWVRQAPGKGLEWIACIFGRSSSDTYYASWAKGRFTISKTSSTTVTLQMTSLTAADTATYFCARGDSGHPYYYSFNLWGPGTLVTVSS
VL: AYDMTQTPASVEVAVGGTVTIKCQASQSIGGYLAWYQQKPGQPPKLLIYGASTLASGVPSRFRGSGSGTEFTLTISDLDSADAATYYCQCTHGTRSDWAFGGGTEVVVK
notes: V regions on human Ig constant parts; also called AB27_2
B11: P018.S.02.A.A06 (antibody, V domains shown)
VH: QSVEESGGRLVKPDESLTLTCTVSGIDLSTYAMGWVRQAPGKGLEYIGMISTGGSAYYASWAQGRFTISRTSTTVDLKMTSLTTEDTATYFCARLRDPYSYRTYFNLWGPGTLVTVSS
VL: ALVMTQTPSSVEAAVGGTVTIKCQASLSISSALAWYQQKPGQRPKLLIYDASNLESGVPSRFKGSGSGAHFTLTVSDLESADAATYYCQGPYDTVNNNSFGGGTEVVVK
notes: V regions on human Ig constant parts; also called AB27_28
B12: P018.S.06.A.C03 (antibody, V domains shown)
VH: QSLEESGGGLFQPGGSLTLTCKASGLDFSTNYYMCWVRQAPGKGLELIACISTSSGNTWYASWAKGRFTISKTSSTTVTLQMTSLTAADTATYFCARCDIVYVGYGYASRLDLWGQGTLVTVSS
VL: AQVLTQTPSPVSAAVGGTVTINCQASESVYNNNNLAWYQQKPGQPPKFLIYGASSLASGVPSRFKGSGSGTQFTLTISDLESDDAATYYCAGGGSTSVGAFGGGTEVVVK
notes: V regions on human Ig constant parts; also called AB27_101
B13: P018.S.04.A.G04 (antibody, V domains shown)
VH: QSLEESGGRLVTPGTPLTLTCTASGFTISSHHVTWVRQAPGEGLEWIGVIYPSGTTYYASWAKGRFTISRTSTTVDLKMTSLTIEDTATYFCVRDVGYFTLWGQGTLVTVSS
VL: AQVLTQTPSPVSAAVGGTVTISCQSSQSVGGNNWLAWYQQKLGQPPKLLIYYASTLASGVPPRFSGSGSGTQFTLTISEVQSDDSATYYCQGYYSDVTNAFGGGTEVVVK
notes: V regions on human Ig constant parts; also called AB27_78
B14: P018.S.07.A.C04 (antibody, V domains shown)
VH: QEQLVESGGGLVQPEGSLTLTCTASGFSFSSRFWICWVRQAPGKGLEWIACIYGGSTSATYDASWAKGRFTISKTSSTTVTLQMTSLTAADTATYFCTRLPTYDAYVFNLWGPGTLVTVSS
VL: AIVMTQTPSSKSVPVGATATINCQASESVFSNNYLSWYQQKPGRSPKLLIYEASKLASGVPSRFSGSGSGTQFTLTISDVVSDDAATYYCGGYKSNNVDGYAFGGGTEVVVK
notes: V regions on human Ig constant parts; also called AB27_120
B15: P018.S.06.A.C06 (antibody, V domains shown)
VH: QQQLEESGGGLVKPGGTLTLPCKASGFTISSDYDMCWVRQAPGKGLEWITCILGGSGGSTWYANWAKGRFTISQSSSTTVTLQMTSLTDADTATYFCTRASGFTYFELWGPGTLVTVSS
VL: AQVLTQTPSSVSAAVGGTVTINCQASQSVYNNKNLAWYQQKPGQPPKLLIYYASTLASGVSSRFKGSGSGTQFTLTISDVQSDDAATYYCQGEFSCSSSDCFAFGGGTEVVVK
notes: V regions on human Ig constant parts; also called AB27_102
B16: P018.S.03.A.B05 (antibody, V domains shown)
VH: QEQLEESGGDLVKPEGSLTLTCTASGFDLSSRYWICWVRQAPGKGLEWIGCIKTGFSNTWYASWATGRFTFSKASSTTVTLQMTSLTVADTATYFCARIAAAASASDDFRLWGPGTLVTVSS
VL: AQVLTQTPSSVSAAVGGTVTISCQSSKSVYNKWLSWFQQKPGQPPKLLIYDASDLASGVPSRFKGSGSGTEFTLTISDVQSDDAATYFCLGHYDSSSDRFVFGGGTEVVVK
notes: V regions on human Ig constant parts; also called AB27_43

Molecular target: T1, CD27 expressed on the cell surface (HT1080_CD27 cells) (human, UniProt P26842 20-260)
T1 sequence (looked up): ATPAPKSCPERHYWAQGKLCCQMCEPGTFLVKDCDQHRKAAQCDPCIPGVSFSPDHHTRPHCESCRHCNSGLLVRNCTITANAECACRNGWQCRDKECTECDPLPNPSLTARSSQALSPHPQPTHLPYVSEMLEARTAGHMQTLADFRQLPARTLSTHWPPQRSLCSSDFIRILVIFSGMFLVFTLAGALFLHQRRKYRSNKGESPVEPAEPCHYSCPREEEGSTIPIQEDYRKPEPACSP
Assay: cell-based or functional assay
Further: test concentration or dose not given here.

| Binder | IL-8, cross-linked by F(ab')2 fragment [abs. corr.] | IL-8 [abs. corr.] |
| --- | --- | --- |
| B1 | 2.16 abs. corr. | 1.78 abs. corr. |
| B2 | 1.22 abs. corr. | 0.736 abs. corr. |
| B3 | 1.32 abs. corr. | 0.486 abs. corr. |
| B4 | 1.86 abs. corr. | 0.576 abs. corr. |
| B5 | 1.08 abs. corr. | 0.308 abs. corr. |
| B6 | 2.1 abs. corr. | 0.206 abs. corr. |
| B7 | 1.21 abs. corr. | -0.105 abs. corr. |
| B8 | 1.22 abs. corr. | 0.107 abs. corr. |
| B9 | 1.1 abs. corr. | 0.089 abs. corr. |
| B10 | 1.09 abs. corr. | 0.328 abs. corr. |
| B11 | 1.48 abs. corr. | 0.299 abs. corr. |
| B12 | 1.13 abs. corr. | 0.272 abs. corr. |
| B13 | 1.57 abs. corr. | 0.451 abs. corr. |
| B14 | 1.65 abs. corr. | 0.302 abs. corr. |
| B15 | 1.08 abs. corr. | 0.128 abs. corr. |
| B16 | 1.21 abs. corr. | 0.325 abs. corr. |

Molecular target: T1, CD27 expressed on the cell surface …
Assay: cellular binding assay, HT1080_CD27 cells

| Binder | Cellular binding assay [RFU] |
| --- | --- |
| B1 | 175 RFU |
| B2 | 276 RFU |
| B3 | 365 RFU |
| B4 | 387 RFU |
| B5 | 414 RFU |
| B6 | 11 RFU |
| B7 | 358 RFU |
| B8 | 283 RFU |
| B9 | 273 RFU |
| B10 | 300 RFU |
| B11 | 293 RFU |
| B12 | 269 RFU |
| B13 | 335 RFU |
| B14 | 300 RFU |
| B15 | 379 RFU |
| B16 | 206 RFU |

Molecular target: T2, CD27 protein (His-tagged, Sino Biological Inc. 10039-H08B1) (human, UniProt P26842 20-192)
T2 construct: bought; coated onto ELISA plates; also called human CD27; recombinant protein; not shown: His tag
T2 sequence (looked up): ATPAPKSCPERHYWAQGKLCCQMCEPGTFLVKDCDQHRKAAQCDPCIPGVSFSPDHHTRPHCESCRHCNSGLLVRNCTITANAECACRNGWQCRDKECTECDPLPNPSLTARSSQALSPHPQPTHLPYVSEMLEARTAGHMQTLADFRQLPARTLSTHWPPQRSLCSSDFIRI
Assay: ELISA on coated His-tagged CD27

| Binder | ELISA [abs. corr.] |
| --- | --- |
| B1 | 3.13 abs. corr. |
| B2 | 3.46 abs. corr. |
| B3 | 3.7 abs. corr. |
| B4 | 3.41 abs. corr. |
| B5 | 3.5 abs. corr. |
| B6 | 3.14 abs. corr. |
| B7 | 3.5 abs. corr. |
| B8 | 3.47 abs. corr. |
| B9 | 3.14 abs. corr. |
| B10 | 3.15 abs. corr. |
| B11 | 3.13 abs. corr. |
| B12 | 3.14 abs. corr. |
| B13 | 3.48 abs. corr. |
| B14 | 3.45 abs. corr. |
| B15 | 3.13 abs. corr. |
| B16 | 3.14 abs. corr. |
